Data taken from patent US7094873 (University of Texas, dated 2006).

How the values were obtained:
[1] = target: T1, Human Hsp70 (Stressgen) (human, UniProt P0DMV8 1-641); test: cell-based or functional assay
[2] = target: T2, Bovine Hsc70 (Stressgen) (bovine, UniProt P19120 2-650); test: GST-hCHIP fragments, in vitro binding assay, immunoblot
T2 construct: also called purified Hsc70

[3] = target: T3, Human Hsp40 (Stressgen) (human, UniProt P25685 1-340); test: GST pulldown on glutathione-Sepharose beads, immunoblot
T3 construct: also called co-chaperone Hsp40
T3 sequence (P25685 whole entry): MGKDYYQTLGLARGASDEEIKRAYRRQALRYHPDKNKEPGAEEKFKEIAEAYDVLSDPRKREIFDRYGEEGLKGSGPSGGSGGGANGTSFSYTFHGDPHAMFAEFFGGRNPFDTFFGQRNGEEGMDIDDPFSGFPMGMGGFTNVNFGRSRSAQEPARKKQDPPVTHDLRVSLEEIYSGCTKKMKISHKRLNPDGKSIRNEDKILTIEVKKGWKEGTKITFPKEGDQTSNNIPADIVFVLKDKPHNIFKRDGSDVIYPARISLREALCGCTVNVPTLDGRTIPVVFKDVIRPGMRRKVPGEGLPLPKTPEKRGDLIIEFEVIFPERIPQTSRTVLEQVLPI

[4] = target: T4, GST-Hsc70 (amino acid residues 1-540) (UniProt P11142 1-540); test: GST-Hsc70 deletion mutants on beads with 35S-labeled hCHIP, autoradiography
T4 construct: range 1-540; From E. Ungewickell; also called pGEXHsc70 (1-540); not shown: glutathione S-transferase (GST) of a pGEX vector
T4 sequence (P11142 1-540): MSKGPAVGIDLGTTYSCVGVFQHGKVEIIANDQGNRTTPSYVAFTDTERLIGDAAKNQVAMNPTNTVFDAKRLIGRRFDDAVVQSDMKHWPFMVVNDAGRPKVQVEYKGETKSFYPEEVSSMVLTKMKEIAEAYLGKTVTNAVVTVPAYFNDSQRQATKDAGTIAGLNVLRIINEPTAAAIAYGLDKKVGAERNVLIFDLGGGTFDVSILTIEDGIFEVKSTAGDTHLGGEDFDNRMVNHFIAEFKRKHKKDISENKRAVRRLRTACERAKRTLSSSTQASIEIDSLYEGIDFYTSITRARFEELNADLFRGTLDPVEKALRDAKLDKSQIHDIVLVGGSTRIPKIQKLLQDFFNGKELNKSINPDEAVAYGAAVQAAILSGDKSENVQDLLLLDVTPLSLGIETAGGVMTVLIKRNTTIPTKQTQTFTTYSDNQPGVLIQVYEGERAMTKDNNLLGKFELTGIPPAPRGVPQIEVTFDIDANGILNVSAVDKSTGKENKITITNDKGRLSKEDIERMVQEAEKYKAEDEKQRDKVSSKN

[5] = target: T1, Human Hsp70 (Stressgen); test: GST-hCHIP fragments, in vitro binding assay, immunoblot
[6] = target: SV40 large T antigen (negative control protein, Clontech) (SV40, UniProt P03070 84-708); test: yeast two-hybrid
SV40 large T antigen (negative control protein, Clontech), sequence (P03070 84-708 limits assumed): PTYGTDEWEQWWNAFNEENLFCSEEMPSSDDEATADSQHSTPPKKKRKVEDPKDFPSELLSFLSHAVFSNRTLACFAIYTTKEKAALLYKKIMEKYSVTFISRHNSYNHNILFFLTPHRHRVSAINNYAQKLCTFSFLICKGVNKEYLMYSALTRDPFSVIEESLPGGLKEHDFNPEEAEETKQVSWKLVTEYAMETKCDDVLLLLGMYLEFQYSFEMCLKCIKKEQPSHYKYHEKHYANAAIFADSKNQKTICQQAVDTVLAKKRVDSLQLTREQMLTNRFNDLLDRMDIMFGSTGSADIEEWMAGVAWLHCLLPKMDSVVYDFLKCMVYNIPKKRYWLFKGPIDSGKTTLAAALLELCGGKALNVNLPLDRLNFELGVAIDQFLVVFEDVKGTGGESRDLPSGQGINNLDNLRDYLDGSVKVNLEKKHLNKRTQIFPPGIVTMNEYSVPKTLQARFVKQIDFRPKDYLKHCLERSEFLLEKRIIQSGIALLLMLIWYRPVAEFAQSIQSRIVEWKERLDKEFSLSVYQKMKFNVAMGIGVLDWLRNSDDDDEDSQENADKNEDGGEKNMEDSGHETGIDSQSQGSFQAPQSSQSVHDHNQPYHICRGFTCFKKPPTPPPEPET

[7] = target: T5, Fragments of Hsp70 in frame with the GAL4 activation domain (three prey clones, human heart cDNA library in … (human, UniProt P0DMV8 417-641, limits assumed)); test: yeast two-hybrid
T5 construct: domain: carboxyl terminus; Three clones treated as one molecule
T5 sequence (P0DMV8 417-641 limits assumed): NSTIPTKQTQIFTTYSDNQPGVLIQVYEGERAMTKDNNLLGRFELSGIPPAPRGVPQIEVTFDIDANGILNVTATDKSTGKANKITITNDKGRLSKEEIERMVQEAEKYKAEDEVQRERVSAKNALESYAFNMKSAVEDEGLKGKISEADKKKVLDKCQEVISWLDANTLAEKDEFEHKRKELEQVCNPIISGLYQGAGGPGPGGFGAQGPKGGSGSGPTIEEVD

[8] = target: T6, Fragments of Hsc70 in frame with the GAL4 activation domain (five prey clones, human heart cDNA library in … (human, UniProt P11142 394-646, limits assumed)); test: yeast two-hybrid
T6 construct: domain: carboxyl terminus
T6 sequence (P11142 394-646 limits assumed): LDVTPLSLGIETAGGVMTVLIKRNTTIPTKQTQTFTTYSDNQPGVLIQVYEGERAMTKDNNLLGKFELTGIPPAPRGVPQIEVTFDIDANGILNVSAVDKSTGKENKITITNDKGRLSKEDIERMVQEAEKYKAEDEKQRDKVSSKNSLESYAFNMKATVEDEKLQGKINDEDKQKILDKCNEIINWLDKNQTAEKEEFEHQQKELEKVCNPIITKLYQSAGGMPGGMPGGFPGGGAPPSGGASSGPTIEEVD

T1 sequence (P0DMV8 whole entry, the tested form may be a part): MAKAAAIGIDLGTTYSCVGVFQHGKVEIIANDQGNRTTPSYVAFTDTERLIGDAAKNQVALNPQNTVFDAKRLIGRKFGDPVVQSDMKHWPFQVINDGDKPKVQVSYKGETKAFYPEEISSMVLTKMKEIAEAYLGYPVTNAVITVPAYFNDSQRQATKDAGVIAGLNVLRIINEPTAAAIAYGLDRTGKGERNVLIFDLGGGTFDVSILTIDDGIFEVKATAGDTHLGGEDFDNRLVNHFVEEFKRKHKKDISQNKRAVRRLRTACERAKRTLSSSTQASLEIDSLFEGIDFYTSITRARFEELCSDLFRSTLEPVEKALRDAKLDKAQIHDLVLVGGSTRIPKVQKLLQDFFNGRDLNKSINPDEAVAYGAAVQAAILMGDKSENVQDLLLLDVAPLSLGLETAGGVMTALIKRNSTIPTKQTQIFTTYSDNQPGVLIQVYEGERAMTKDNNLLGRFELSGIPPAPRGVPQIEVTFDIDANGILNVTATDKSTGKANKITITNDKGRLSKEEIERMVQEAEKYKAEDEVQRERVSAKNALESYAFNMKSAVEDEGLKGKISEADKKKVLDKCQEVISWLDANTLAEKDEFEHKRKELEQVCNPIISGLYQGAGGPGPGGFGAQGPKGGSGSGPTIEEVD
T2 sequence (P19120 2-650 limits assumed): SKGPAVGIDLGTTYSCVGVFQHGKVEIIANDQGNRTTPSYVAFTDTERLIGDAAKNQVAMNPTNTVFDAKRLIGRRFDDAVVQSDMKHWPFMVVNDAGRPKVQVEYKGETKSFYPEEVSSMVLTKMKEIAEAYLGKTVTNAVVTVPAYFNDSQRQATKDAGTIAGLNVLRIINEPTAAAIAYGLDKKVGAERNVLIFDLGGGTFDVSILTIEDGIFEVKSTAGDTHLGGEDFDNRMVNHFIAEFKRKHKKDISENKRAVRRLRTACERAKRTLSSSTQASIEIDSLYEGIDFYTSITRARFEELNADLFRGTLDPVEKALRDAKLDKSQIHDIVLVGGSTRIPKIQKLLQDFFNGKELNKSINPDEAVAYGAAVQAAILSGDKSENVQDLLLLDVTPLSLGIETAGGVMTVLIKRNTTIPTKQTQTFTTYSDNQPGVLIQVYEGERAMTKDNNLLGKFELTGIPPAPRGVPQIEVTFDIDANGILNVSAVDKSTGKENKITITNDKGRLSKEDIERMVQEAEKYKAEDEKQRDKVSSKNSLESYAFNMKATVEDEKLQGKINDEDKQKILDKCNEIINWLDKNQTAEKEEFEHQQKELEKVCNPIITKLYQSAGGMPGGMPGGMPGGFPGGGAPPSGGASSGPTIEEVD

B1: Recombinant hCHIP (His-tagged fusion from plasmid pET-hCHIP, expressed in E. coli BL21) (other, not shown: small tags and cut ends)
chain: MKGKEEKEGGARLGAGGGSPEKSPSAQELKEQGNRLFVGRKYPEAAACYGRVITRNPLVAVYYTNRALCYLKMQQHEQALADCRRALELDGQSVKAHFFLGQCQLEMESYDEAIANLQRAYSLAKEQRLNFGDDIPSALRIAKKKRWNSIEERRIHQESELHSYLSRLIAAERERELEECQRNHEGDEDDSHVRAQQACIEAKHDKYMADMDELFSQVDEKRKKRDIPDYLCGKISFELMREPCITPSGITYDRKDIEEHLQRVGHFDPVTRSPLTQEQLIPNLAMKEVIDAFISENGWVEDY
With B1 the “luciferase refolding: decrease of the folding activity of Hsp70” value [1] was 65% and the “luciferase refolding: decrease of the folding activity of Hsp70/Hsp40” value [1] was 64%.

B2: GST-hCHIP fusion protein (amino acid residues 1-303) (other)
chain: MKGKEEKEGGARLGAGGGSPEKSPSAQELKEQGNRLFVGRKYPEAAACYGRVITRNPLVAVYYTNRALCYLKMQQHEQALADCRRALELDGQSVKAHFFLGQCQLEMESYDEAIANLQRAYSLAKEQRLNFGDDIPSALRIAKKKRWNSIEERRIHQESELHSYLSRLIAAERERELEECQRNHEGDEDDSHVRAQQACIEAKHDKYMADMDELFSQVDEKRKKRDIPDYLCGKISFELMREPCITPSGITYDRKDIEEHLQRVGHFDPVTRSPLTQEQLIPNLAMKEVIDAFISENGWVEDY
notes: also called GST-CHIP; not shown: glutathione S-transferase (GST) encoded by vector pGEX KG
B2: binds [2]; no binding [3].

B3: 35S-labeled, in vitro translated hCHIP (43-kD S-tagged fusion from vector pCITE-4a) (other)
chain: MKGKEEKEGGARLGAGGGSPEKSPSAQELKEQGNRLFVGRKYPEAAACYGRVITRNPLVAVYYTNRALCYLKMQQHEQALADCRRALELDGQSVKAHFFLGQCQLEMESYDEAIANLQRAYSLAKEQRLNFGDDIPSALRIAKKKRWNSIEERRIHQESELHSYLSRLIAAERERELEECQRNHEGDEDDSHVRAQQACIEAKHDKYMADMDELFSQVDEKRKKRDIPDYLCGKISFELMREPCITPSGITYDRKDIEEHLQRVGHFDPVTRSPLTQEQLIPNLAMKEVIDAFISENGWVEDY
modifications: 35S-methionine labeled
notes: Made in rabbit reticulocyte lysate; not shown: S-tag and vector-encoded residues of pCITE-4a
B3: no binding [4].

B4: GST-hCHIP fusion protein (amino acid residues 1-197) (other)
chain: MKGKEEKEGGARLGAGGGSPEKSPSAQELKEQGNRLFVGRKYPEAAACYGRVITRNPLVAVYYTNRALCYLKMQQHEQALADCRRALELDGQSVKAHFFLGQCQLEMESYDEAIANLQRAYSLAKEQRLNFGDDIPSALRIAKKKRWNSIEERRIHQESELHSYLSRLIAAERERELEECQRNHEGDEDDSHVRAQQ
notes: TPR domains plus the adjacent charged domain; also called GST construct 4; not shown: glutathione S-transferase (GST) encoded by vector pGEX KG
B4: binds [2]; binds [5].

B5: Full-length hCHIP fused to the GAL4 DNA-binding domain (bait, plasmid pAS2-1) (other)
chain: MKLLSSIEQACDICRLKKLKCSKEKPKCAKCLKNNWECRYSPKTKRSPLTRAHLTEVESRLERLEQLFLLIFPREDLDMILKMDSLQDIKALLTGLFVQDNVNKDAVTDRLASVETDMPLTLRQHRISATSSSEESSNKGQRQLTVSMKGKEEKEGGARLGAGGGSPEKSPSAQELKEQGNRLFVGRKYPEAAACYGRVITRNPLVAVYYTNRALCYLKMQQHEQALADCRRALELDGQSVKAHFFLGQCQLEMESYDEAIANLQRAYSLAKEQRLNFGDDIPSALRIAKKKRWNSIEERRIHQESELHSYLSRLIAAERERELEECQRNHEGDEDDSHVRAQQACIEAKHDKYMADMDELFSQVDEKRKKRDIPDYLCGKISFELMREPCITPSGITYDRKDIEEHLQRVGHFDPVTRSPLTQEQLIPNLAMKEVIDAFISENGWVEDY
notes: Expressed in yeast strain CG-1945
B5: no binding [6].

B6: lamin C (negative control, yeast two-hybrid) (other, UniProt P02545-2 66-230, looked up)
chain: SEEVVSREVSGIKAAYEAELGDARKTLDSVAKERARLQLELSKVREEFKELKARNTKKEGDLIAAQARLKDLEALLNSKEAALSTALSEKRTLEGELHDLRGQVAKLEAALGEAKKQLQDEMLRRVDAENRLQTMKEELDFQKNIYSEELRETKRRHETRLVEID
B6: no binding [7]; no binding [8].

B7: GST-hCHIP fusion protein (amino acid residues 1-142) (other)
chain: MKGKEEKEGGARLGAGGGSPEKSPSAQELKEQGNRLFVGRKYPEAAACYGRVITRNPLVAVYYTNRALCYLKMQQHEQALADCRRALELDGQSVKAHFFLGQCQLEMESYDEAIANLQRAYSLAKEQRLNFGDDIPSALRIA
notes: Contains the three TPR domains; also called GST construct 2; not shown: glutathione S-transferase (GST) encoded by vector pGEX KG
B7: no binding [2]; no binding [5].
